Assay results published in patent US20070184522A1, “Cell death modulation via antagonists of Fasl and Fas activation” (University of Pittsburgh of the Commonwealth System of …, priority 2004, published 2007).

T1: Fas-Fc (Mus musculus, UniProt P25446)
T1 construct: purchased R&D
T1 sequence (P25446 22-169 limits assumed): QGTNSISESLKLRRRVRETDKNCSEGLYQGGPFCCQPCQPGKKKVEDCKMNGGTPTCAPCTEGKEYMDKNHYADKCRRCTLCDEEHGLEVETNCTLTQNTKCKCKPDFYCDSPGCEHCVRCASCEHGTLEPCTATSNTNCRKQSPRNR

T2: Fas-Fc / Fas ligand binding (Mus musculus, UniProt P25446)
T2 construct: purchased R&D
T2 sequence (P25446 22-169 limits assumed): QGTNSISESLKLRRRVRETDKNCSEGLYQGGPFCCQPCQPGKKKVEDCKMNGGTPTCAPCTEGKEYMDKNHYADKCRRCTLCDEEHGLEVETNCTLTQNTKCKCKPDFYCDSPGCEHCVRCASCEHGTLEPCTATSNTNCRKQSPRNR

T3: Fas-Fc (extracellular part of Fas) (Mus musculus, UniProt P25446)
T3 construct: purchased R&D
T3 sequence (P25446 22-169 limits assumed): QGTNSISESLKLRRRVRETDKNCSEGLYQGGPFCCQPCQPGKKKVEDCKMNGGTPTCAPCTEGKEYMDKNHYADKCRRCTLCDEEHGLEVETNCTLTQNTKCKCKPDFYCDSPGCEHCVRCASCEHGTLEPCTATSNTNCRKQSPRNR


How the values were obtained:
Fas-Fc = biological target: T1, Fas-Fc; test: ELISA of Fas-Fc binding to coated synthetic polypeptides; details: peptides coated at 1 μg/ml, increasing Fas-Fc, OD 450 nm
Description: The Met alpha but not beta chain binds to Fas (FIG. 1a). Various regions of the mouse Met cDNA corresponding to the alpha chain or the extra-cellular portion of the Met beta chain were cloned into expression vectors (pCRT7 TOPO/AlphaMet or pCRT7 TOPO/beta chain) and subjected to in vitro transcription/translation by a rabbit reticolucyte lysate translation system. Empty vector was included in each experiment as a control. The expressed proteins were labeled with ^35S-Methionine. Pull down assays were performed using Fas-Fc, a chimeric molecule which lacks the interacellular cytoplasmic domain and protein-A agarose as described in Wang et al., 2002. FIG. 1b is a schematic presentation of the Met alpha chain and its mutant version used to map the region interacting with Fas. The C-terminus of each construct contains a hexa-Histidine tag for ease of detection. Start cordon ATG was added to the N-terminally truncated constructs. The YLGA (SEQ ID NO:1) motif mutation was prepared by PCR, in which YLGA (SEQ ID NO:1) was replaced by DHER (SEQ ID NO:24). […] In vitro translated ^35S-methionine labeled truncated/mutated AlphaMet proteins were pulled down with 2 μg of Fas-Fc or the same amount of IgG. Lane 1: 10% of AlphaMet input; Lane 2: AlphaMet with IgG control; Lanes 3 to 8: pull down of various truncated AlphaMet proteins; N-terminal 1-106 residues; C-terminal truncated, residues 1-210; alpha chain, residues 1-306; alpha chain with transmembrane domain, 1-338; N-terminally truncated alpha chain, residues 100-306; and N-terminally truncated with addition of the transmembrane domain 100-338, respectively. FIG. 1d depicts the amino acid sequence alignment of alpha chain with FasL, determined using the CLUSTALW, SIM+LALNVIEW, and ALIGN at ExPASy Proteomic Tools (available on the internet at us.expresly.org/tools). The numbers indicate the amino acid residues of the indicated protein. […] Recombinant His-tagged AlphaMet or its mutant version were expressed in E. coli, purified with chromatography, and subjected to Fas-Fc (lanes labeled Fas) or control IgG pull down experiments, and detected by Western blot using anti-His antibody that recognizes C-terminal His. This antibody also recognizes the Fas-Fc which is also tagged at the C-terminus by His. […] Purified recombinant AlphaMet protein (approximately 10 μg) was mixed with Hepa 1-6 cells or Jurkat cell lysates and subjected to immunoprecicitation using anti-Fas antibody or control IgG followed by Western blot using anti His-tag antibody as a probe. […] Peptides (1 μg/ml) were coated into the 96-well microtiter plates in triplicate and after blocking with 1% BSA, increasing amounts of Fas-Fc were added as indicated. The control peptide was a scrambled 13 mer. After washing the wells, anti-human […]-HRP conjugates (1:20,000) were added to detect the bound Fas-Fc using TMD dye and the OD value was determined at a wavelength of 450 nm. One-way ANOVA was carried out for determination of statistical significance.
ELISA. Synthesized polypeptides (Genemed Synthesis, Inc. South San Francisco, Calif.) were dissolved in water and diluted in the coating buffer (0.05M of Sodium Carbonate, 0.02% of Sodium Azide, pH 9.6) to a final concentration of 1 ug/ml. One hundred microliter aliquots were added to coat each well of a 96-well microtitre plate. The coated plates were then washed with PBS-Tween (0.5%) three times. The plates were blotted and dried by tapping upside down on tissue paper. They were blocked using 200 μl of 1% of BSA in PBS solution followed by a 2 hour incubation. Plates were washed another three times, Fas-Fc was added, and the plates were incubated for another 2 hours. The plates were washed three times and anti-human IgM Fc HRP conjugates were included at a final concentration of 1:20,000, and incubated for 1 hour. Plates were washed three times again and ready-to-use TMD was added and incubated for 30 minutes. The color reaction was stopped by 2M of Sulfuric Acid. […]

[1] = biological target: T2, Fas-Fc / Fas ligand binding; test: Competition ELISA: coated Fas ligand, Fas-Fc added with increasing amounts of polypeptide; details: Fas ligand 1 μg/ml coated, Fas-Fc 1 μg/ml
Protocol: This antibody also recognizes Fas-Fc which is also tagged at the C-terminus by His. In FIG. 2b, a fixed amount of purified recombinant Fas-ligand was added to Fas-Fc in the absence or presence of increasing amounts of AlphaMet as indicated. Samples were subjected to pull down using proteinA agarose followed by Western blot using a polyclonal rabbit anti-FasL antibody. […] Fas ligand (1 μg/ml) was coated in the wells of a microtiter plate (triplicate wells) then 1 μg/ml of Fas-Fc was added in the absence or presence of an increasing amount of the indicated polypeptide. A 13 mer YLGA polypeptide derived from FasL also was synthesized and used. The control peptide was a scrambled 13 mer. Anti human IgM-HRP conjugates were used to detect the bound Fas-Fc. […] One-way ANOVA was carried out for determination of statistical significance. […] Cells (3×10^5) were plated in 24-well plates having Poly-L-Lysine pre-treated cover glass. 2 μg/ml of Fas ligand was added and the cells were incubated for 30 min on ice. Cells were then washed by PBS twice, and were subjected to immunostaining using anti-Fas ligand antibody and fluorescent microscopy. In Frame A, Fas ligand was not added, in B, only Fas ligand was added, in C-F, Fas ligand was added with different polypeptides as follows: AlphaMet, 12 mer YLGA, control peptide, and YLGA mutated AlphaMet, respectively.
ELISA. Synthesized polypeptides (Genemed Synthesis, Inc. South San Francisco, Calif.) were dissolved in water and diluted in the coating buffer (0.05M of Sodium Carbonate, 0.02% of Sodium Azide, pH 9.6) to a final concentration of 1 ug/ml. One hundred microliter aliquots were added to coat each well of a 96-well microtitre plate. The coated plates were then washed with PBS-Tween (0.5%) three times. The plates were blotted and dried by tapping upside down on tissue paper. They were blocked using 200 μl of 1% of BSA in PBS solution followed by a 2 hour incubation. Plates were washed another three times, Fas-Fc was added, and the plates were incubated for another 2 hours. The plates were washed three times and anti-human IgM Fc HRP conjugates were included at a final concentration of 1:20,000, and incubated for 1 hour. Plates were washed three times again and ready-to-use TMD was added and incubated for 30 minutes. The color reaction was stopped by 2M of Sulfuric Acid. Plates were applied to color read at a wave length of 450 nm.

[2] = biological target: CFP-tagged and YFP-tagged Fas expressed in Hepa 1-6 cells; test: cell-based or functional assay
[3] = biological target: T3, Fas-Fc (extracellular part of Fas); test: Fas-Fc pull down assay with protein-A agarose; type: binding; details: in vitro translated 35S-labeled proteins, autoradiography
Description: The Met alpha but not beta chain binds to Fas (FIG. 1a). Various regions of the mouse Met cDNA corresponding to the alpha chain or the extra-cellular portion of the Met beta chain were cloned into expression vectors (pCRT7 TOPO/AlphaMet or pCRT7 TOPO/beta chain) and subjected to in vitro transcription/translation by a rabbit reticolucyte lysate translation system. Empty vector was included in each experiment as a control. The expressed proteins were labeled with ^35S-Methionine. Pull down assays were performed using Fas-Fc, a chimeric molecule which lacks the interacellular cytoplasmic domain and protein-A agarose as described in Wang et al., 2002. FIG. 1b is a schematic presentation of the Met alpha chain and its mutant version used to map the region interacting with Fas. The C-terminus of each construct contains a hexa-Histidine tag for ease of detection. Start cordon ATG was added to the N-terminally truncated constructs. The YLGA (SEQ ID NO:1) motif mutation was prepared by PCR, in which YLGA (SEQ ID NO:1) was replaced by DHER (SEQ ID NO:24). […] In vitro translated ^35S-methionine labeled truncated/mutated AlphaMet proteins were pulled down with 2 μg of Fas-Fc or the same amount of IgG. Lane 1: 10% of AlphaMet input; Lane 2: AlphaMet with IgG control; Lanes 3 to 8: pull down of various truncated AlphaMet proteins; N-terminal 1-106 residues; C-terminal truncated, residues 1-210; alpha chain, residues 1-306; alpha chain with transmembrane domain, 1-338; N-terminally truncated alpha chain, residues 100-306; and N-terminally truncated with addition of the transmembrane domain 100-338, respectively. FIG. 1d depicts the amino acid sequence alignment of alpha chain with FasL, determined using the CLUSTALW, SIM+LALNVIEW, and ALIGN at ExPASy Proteomic Tools (available on the internet at us.expresly.org/tools). The numbers indicate the amino acid residues of the indicated protein. […] Recombinant His-tagged AlphaMet or its mutant version were expressed in E. coli, purified with chromatography, and subjected to Fas-Fc (lanes labeled Fas) or control IgG pull down experiments, and detected by Western blot using anti-His antibody that recognizes C-terminal His. This antibody also recognizes the Fas-Fc which is also tagged at the C-terminus by His. […] Purified recombinant AlphaMet protein (approximately 10 μg) was mixed with Hepa 1-6 cells or Jurkat cell lysates and subjected to immunoprecicitation using anti-Fas antibody or control IgG followed by Western blot using anti His-tag antibody as a probe. […] After washing the wells, anti-human […]-HRP conjugates (1:20,000) were added to detect the bound Fas-Fc using TMD dye and the OD value was determined at a wavelength of 450 nm. […]

| Molecule | Fas binding by ELISA (Fas-Fc) | inhibition of FasL binding to Fas-Fc (ELISA) [1] | percent of fluorescent cells showing Fas capping [2] | Fas binding in Fas-Fc pull down [3] |
| --- | --- | --- | --- | --- |
| AHSSYLGAVFNLT [YLGA-13 mer] | bound Fas strongly | significantly inhibited FasL binding |  |  |
| FLGA [FLGA tetramer] | identical binding activity to that of the YLGA tetramer |  |  |  |
| FLGAV | very active in binding to Fas | inhibiting FasL binding to Fas |  |  |
| FTAETPIQNVVLHGHHIYLGATNYIYVLNDKDLQKV [36 mer] | bound Fas strongly | significantly inhibited FasL binding |  |  |
| HHIFLGATNYIY | strong Fas-binding activity | significantly inhibited FasL binding |  |  |
| Jo2, monoclonal anti-Fas antibody |  |  | 30% |  |
| RLGA | completely lost their Fas binding capacity |  |  |  |
| TGHIYLGAVNRIY [13-mer derived from PlexinA4] | strong Fas-binding activity | significantly inhibited FasL binding |  |  |
| YLRA | completely lost their Fas binding capacity |  |  |  |
| YRGA | completely lost their Fas binding capacity |  |  |  |
| Met beta chain: extracellular region of Met beta chain (amino acids 308 to 968, with transmembrane portion) (protein) TREEVFNILQAAYVSKPGANLAKQIGASPSDDILFGVFAQSKPDSAEPVNRSAVCAFPIKYVNDFFNKIVNKNNVRCLQHFYGPNHEHCFNRTLLRNSSGCEARSDEYRTEFTTALQRVDLFMGRLNQVLLTSISTFIKGDLTIANLGTSEGRFMQVVLSRTAHLTPHVNFLLDSHPVSPEVIVEHPSNQNGYTLVVTGKKITKIPLNGLGCGHFQSCSQCLSAPYFIQCGWCHNQCVRFDECPSGTWTQEICLPAVYKVFPTSAPLEGGTVLTICGWDFGFRKNNKFDLRKTKVLLGNESCTLTLSESTTNTLKCTVGPAMSEHFNVSVIISNSRETTQYSAFSYVDPVITSISPRYGPQAGGTLLTLTGKYLNSGNSRHISIGGKTCTLKSVSDSILECYTPAQTTSDEFPVKLKIDLANRETSSFSYREDPVVYEIHPTKSFISGGSTITGIGKTLNSVSLPKLVIDVHEVGVNYTVACQHRSNSEIICCTTPSLKQLGLQLPLKTKAFFLLDGILSKHFDLTYVHNPVFEPFEKPVMISMGNENVVEIKGNNIDPEAVKGEVLKVGNQSCESLHWHSGAVLCTVPSDLLKLNSELNIEWKQAVSSTVLGKVIVQPDQNFAGLIIGAVSISVVVLLLSGLFLWMRKRKHKDLGSELVR |  |  |  | not the Met beta chain region bound specifically |
